According to patent USRE41461E1, “Purification, composition and specificity of Heparinase I, II, and III from Flavobacterium heparinum” (Massachusetts Institute of Technology, priority 1992, dated 2010):

Assays:
[1] = Heparin lyase activity assay (change of absorbance at 232 nm), heparan sulfate as substrate; format: biochemical; settings: final level of depolymerization, 24 h
Method: (§1) The spectrophotometer was adjusted to the optimum temperature of the particular lyase being assayed. […] A measured quantity of lyase was added, bringing the final volume to 400 μl and the cuvette was gently mixed. The microcuvette was then immediately returned to the spectrophotometer and the change of absorbance at 232 nm was measured at 10 seconds intervals over 3 min. […] The specific activity was then calculated by dividing the micromoles of product produced per minute by the milligrams of protein in the cuvette. […] G., and Linhardt, R. J. (1989) Carbohydr. Res. 190, 219-233. Protein concentration was measured by the Bradford assay, Bradford, M. M. (1976) Anal. Biochem. 72, 248-254, based on a bovine serum albumin standard curve. […] The activities of each lyase (I acting on heparin, II acting on both heparin and heparan sulfate, and III acting on heparan sulfate) were then determined at different pH values. The buffer giving optimum activity for each heparin lyase was selected by testing buffers with buffering capacity near the pH optima calculated in the previous experiments. These buffers were: Tris-HCl, sodium phosphate, HEPES, MOPS, TES, and BTP-CHl. […] The heparin lyase assay solutions were made by diluting enzyme in 50 mM sodium phosphate buffer adjusted to the appropriate pH as previously described. Heparin lyase activity was determined in each buffer. Activity was assayed both immediately after addition to each buffer and following incubation for 24 h at 37° C. The salt concentration for optimum activity was investigated. Sodium chloride, potassium chloride, and sodium and potassium acetate were used to differentiate between ionic strength and specific ion affects. […] The temperature was adjusted in a temperature-regulated spectrophotometer and equilibrated for 10 min before the assay was started. Michaelis-Menten constants were determined using the optimized conditions. The final absorbance value for total depolymerization was divided by 20 to find a value that represented 5% reaction completion. The purified lyase preparations were diluted so that 5% of total depolymerization would be reached only at the end of a 3-min assay. The reaction velocities at specific molar concentrations for each lyase and their substrates were used for kinetic analysis using EZ-FIT hyperbolic curve-fitting program of […]. (1988) Anal. Biochem. 174, 437-447). Substrate solutions were prepared from 50 mg/ml heparin and 40 mg/ml for heparan sulfate stock solutions. […] The amount of purified lyase used was sufficient for complete depolymerization of heparin or heparan sulfate substrates within 30 min. The initial rate of depolymerization of each polysaccharide was measured, the reaction was then continued for 24 h, and the final level of polysaccharide depolymerization was assessed by measuring the final absorbance at 232 nm and expressed as percent activity.

[2] = Temperature stability of lyase activity; format: physicochemical; settings: 30° C., protein 650 ng/ml
Method: Lyase assay stock solutions were prepared in the appropriate buffer and placed in water baths at the following temperatures: heparin lyase I at 30° C., heparin lyase II at 35° C., and heparin lyase III at both 35° and 40° C. […]

[3] = Isoelectric focusing on agarose gel; format: physicochemical; settings: agarose IEF
Method: IEF gel electrophoresis was run on pre-cast agarose gels (85×100 mm). Two electrode wicks were wetted with 1M phosphoric acid (anolyte) and 1M sodium hydroxide (catholyte). Electrophoresis was at 5 watts for 5 min, then at 10 watts for 1 h until the voltage was constant at 1200 V. The gel was immediately fixed in 15% aqueous trichloroacetic acid, blotted and rinsed with water, dried overnight, stained by using Coomassie G-250, and destained.

[4] = Activity remaining after incubation in buffers for 24 h at 37° C.; format: physicochemical; settings: each of six buffers
Method: The buffer giving optimum activity for each heparin lyase was selected by testing buffers with buffering capacity near the pH optima calculated in the previous experiments. These buffers were: Tris-HCl, sodium phosphate, HEPES, MOPS, TES, and BTP-CHl. Each buffer was prepared at 50 mM, and its pH was adjusted with hydrochloric acid or sodium hydroxide to 6.9 for heparin lyase II acting on heparin, 7.15 for heparin lyase I, 7.3 for heparin lyase II acting on heparan sulfate, and 7.6 for heparin lyase III. The heparin lyase assay solutions were made by diluting enzyme in 50 mM sodium phosphate buffer adjusted to the appropriate pH as previously described. Heparin lyase activity was determined in each buffer. Activity was assayed both immediately after addition to each buffer and following incubation for 24 h at 37° C.

[5] = Heparin lyase activity: effect of divalent metals and added salt, substrate specificity (each lyase on its substrates); format: biochemical
Method: The spectrophotometer was adjusted to the optimum temperature of the particular lyase being assayed. A 700 μl quartz microcuvette containing 400 μg of substrate in 50 mM sodium phosphate buffer (containing 100 mM sodium chloride for heparin lyase I) was thermally equilibrated. A measured quantity of lyase was added, bringing the final volume to 400 μl and the cuvette was gently mixed. The microcuvette was then immediately returned to the spectrophotometer and the change of absorbance at 232 nm was measured at 10 seconds intervals over 3 min. The activity was measured from the change of absorbance/unit time using an extinction coefficient of 3800 M^−1 for products. The specific activity was then calculated by dividing the micromoles of product produced per minute by the milligrams of protein in the cuvette. The molecular weights used for heparin, heparan sulfate, and the chondroitin sulfates were 14,000, 20,000 and 25,000, respectively, Rice, K. G., and Linhardt, R. J. (1989) Carbohydr. Res. 190, 219-233. Protein concentration was measured by the Bradford assay, Bradford, M. M. (1976) Anal. Biochem. 72, 248-254, based on a bovine serum albumin standard curve.
BTP-HCl buffer (50 mM) was prepared containing either 10 mM calcium chloride, 10 μM or 1 mM copper (II) chloride, 10 μM and 1 mM mercury (II) chloride, and 1 mM zinc (II) chloride. Each solution was adjusted to the optimum pH for the lyase being tested, and the activity of the heparin lyases was measured in the presence and absence of divalent metals.
The salt concentration for optimum activity was investigated. Sodium chloride, potassium chloride, and sodium and potassium acetate were used to differentiate between ionic strength and specific ion affects. Added salt concentrations varied between 0 and 500 mM and were prepared in 50 mM sodium phosphate buffer after which the pH was adjusted to each enzyme's optimum and the heparin lyase activity was measured.
Each heparin lyase was added to a solution of complex polysaccharides (1 mg/ml) under optimized assay conditions, and the reaction was monitored at 232 nm for 30 min. The amount of purified lyase used was sufficient for complete depolymerization of heparin or heparan sulfate substrates within 30 min. The initial rate of depolymerization of each polysaccharide was measured, the reaction was then continued for 24 h, and the final level of polysaccharide depolymerization was assessed by measuring the final absorbance at 232 nm and expressed as percent activity.

[6] = Stability toward storage, freeze thawing and lyophilization; format: physicochemical; settings: for activity retained: absence of excipient
Method: […] […] These lyase solutions were then divided into 3 equal aliquots, and one of each was subjected to either freeze thawing, lyophilization, or retained as a control in an ice bath. The activities of heparin lyases I-III were determined in the presence and absence of excipients after: 1) brief storage at 4° C.; 2) freezing at −70° C. and thawing; and 3) −70° C. freezing, lyophilization, and reconstituting with an equal volume of cold water.

[7] = cited from earlier work
[8] = Heparin lyase activity assay (change of absorbance at 232 nm), heparin as substrate; format: biochemical, porcine
Method: as §1

B1: Heparin lyase I: heparin lyase I (heparinase, EC 4.2.2.7) purified to homogeneity from Flavobacterium heparinum (protein, UniProt Q05819 22-384, looked up)
Heparin lyase I: QQKKSGNIPYRVNVQADSAKQKAIIDNKWVAVGINKPYALQYDDKLRFNGKPSYRFELKAEDNSLEGYAAGETKGRTELSYSYATTNDFKKFPPSVYQNAQKLKTVYHYGKGICEQGSSRSYTFSVYIPSSFPDNATTIFAQWHGAPSRTLVATPEGEIKTLSIEEFLALYDRMIFKKNIAHDKVEKKDKDGKITYVAGKPNGWKVEQGGYPTLAFGFSKGYFYIKANSDRQWLTDKADRNNANPENSEVMKPYSSEYKTSTIAYKMPFAQFPKDCWITFDVAIDWTKYGKEANTILKPGKLDVMMTYTKNKKPQKAHIVNQQEILIGRNDDDGYYFKFGIYRVGNSTVPVTYNLSGYSETAR
[1]
  average number of sites acted at in the heparan sulfate polymer: 5 sites
[2]
  time in which 80% of activity was lost: 5 h
[3]
  pI (isoelectric point): 9.1-9.2
[4]
  activity after incubation, % of initial value: 1-20%
[5]
  substrates acted on: act on both heparin and heparan sulfate
[5]; 10 μM mercury (II) chloride
  effect of mercury on activity: markedly reduced
[5]; 1 mM copper (II) chloride
  effect of copper on activity: markedly reduced
[5]; 1 mM mercury (II) chloride
  effect of mercury on activity: markedly reduced
[5]; 1 mM zinc (II) chloride
  effect of zinc on activity: slightly reduced
[5]; 10 mM calcium chloride, 50 mM BTP-HCl
  effect of calcium on activity (increase): 30%
[5]; increasing salt concentration, 0-500 mM
  effect of added salt on activity: increased activity
[6]; after a single freeze-thawing
  activity retained: 45%
[6]; after freeze-drying
  activity retained: 25%
[6]; stored at 4° C.
  activity retained: 50%
[6]; addition of 2.0 mg/ml BSA
  retention of activity: greater than 85%
[6]; addition of 5% lactose
  retention of activity: 40-80%
[7]; Yang et al. (1985), Linker and co-workers, assay times up to 6 h
  pH optimum (reported): 6.5
[7]; literature
  Vmax (reported): 19.7 μmol/min/mg protein
[8]; 0-500 mM salt in 50 mM sodium phosphate buffer
  added salt concentration (ionic strength) for optimum activity: 100 mM
[8]; final GPC-HPLC purification step, acting on heparin
  Unit/mg (specific activity): 130 Unit/mg
[8]; final level of depolymerization, 24 h
  average number of sites acted at in the heparin polymer: 7 sites
[8]; heparin, 50 mM buffer at optimum pH
  initial activity in six buffers (Tris-HCl, sodium phosphate, HEPES, MOPS, TES, BTP-HCl): reduced activity in MOPS, TES, and HEPES
[8]; heparin, 50 mM sodium phosphate at optimum pH, 15-55° C.
  temperature for maximum activity: 35 °C
[8]; heparin, I: 30° C., pH 7.15, 100 mM sodium chloride, II: 35° C., pH 7.3, value ± standard error, read-out: Km(app)
  Km: 17.8 ± 1.5 µM
[8]; heparin, optimized conditions, value ± standard error
  Vmax: 219 ± 3.48 μmol/min mg protein
[8]; on heparin
  pH optimum for activity: 7.15
[8]; purified lyase, toward heparin
  specific activity: 130 units/mg
